# Article PMC4990422, “Coupling between the DEAD-box RNA helicases Ded1p and eIF4A” (eLife, 2016)
# pKd: −log10 of the molar value.
# What was measured:
# [1] = biological target: eIF4G-eIF4E complex (Saccharomyces cerevisiae) (UniProt P39935); conditions: cited from earlier work
# [2] = biological target: Ded1p (wild type, N-terminal His6-tag) (S. cerevisiae) (UniProt P06634); experiment: cross-linking; formaldehyde 1% (v/v), 30 min, room temperature; Ded1p 0.3 µM, eIF4A 2 µM or as indicated, RNA 2 µM (16 bp, 25 nt 3'-overhang), 0.5 mM ADPNP-MgCl2, unwinding buffer; Western blot with α-Ded1p
# eIF4A (S. cerevisiae) [3] = biological target: T1, eIF4A (S. cerevisiae) (UniProt P10081); experiment: global fit of RNA unwinding time courses to a thermodynamic model; K1/2 of a binding step calculated with the model of Figure 4A; RNA bound to the binder before the step, ATP bound to Ded1p
# T1 sequence: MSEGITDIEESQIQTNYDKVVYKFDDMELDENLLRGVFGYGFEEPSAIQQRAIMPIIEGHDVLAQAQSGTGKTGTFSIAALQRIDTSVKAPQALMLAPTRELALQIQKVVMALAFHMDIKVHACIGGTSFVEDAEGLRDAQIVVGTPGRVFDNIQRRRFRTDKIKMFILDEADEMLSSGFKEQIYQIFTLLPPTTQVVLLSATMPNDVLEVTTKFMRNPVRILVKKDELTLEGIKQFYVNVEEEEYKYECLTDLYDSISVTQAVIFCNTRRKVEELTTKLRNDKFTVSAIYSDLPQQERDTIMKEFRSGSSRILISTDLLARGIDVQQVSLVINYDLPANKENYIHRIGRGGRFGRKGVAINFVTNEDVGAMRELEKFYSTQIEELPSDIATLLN
# eIF4A (S. cerevisiae) [4] = biological target: T1, eIF4A (S. cerevisiae); experiment: global fit of RNA unwinding time courses to a thermodynamic model; K1/2 of a binding step calculated with the model of Figure 4A; step without RNA, ATP bound to eIF4A
# eIF4A (S. cerevisiae) [5] = biological target: T1, eIF4A (S. cerevisiae); experiment: global fit of RNA unwinding time courses to a thermodynamic model; K1/2 of a binding step calculated with the model of Figure 4A; RNA bound to the target before the step, no ATP
# eIF4A (S. cerevisiae) [6] = biological target: T1, eIF4A (S. cerevisiae); experiment: global fit of RNA unwinding time courses to a thermodynamic model; K1/2 of a binding step calculated with the model of Figure 4A; step without RNA, ATP bound to Ded1p and to eIF4A
# eIF4A (S. cerevisiae) [7] = biological target: T1, eIF4A (S. cerevisiae); experiment: global fit of RNA unwinding time courses to a thermodynamic model; K1/2 of a binding step calculated with the model of Figure 4A; RNA bound to the target before the step, ATP bound to eIF4A
# eIF4A (S. cerevisiae) [8] = biological target: T1, eIF4A (S. cerevisiae); experiment: global fit of RNA unwinding time courses to a thermodynamic model; K1/2 of a binding step calculated with the model of Figure 4A; RNA bound to the target before the step, ATP bound to Ded1p and to eIF4A
# eIF4A (S. cerevisiae) [9] = biological target: T1, eIF4A (S. cerevisiae); experiment: global fit of RNA unwinding time courses to a thermodynamic model; K1/2 of a binding step calculated with the model of Figure 4A; RNA bound to the binder before the step, ATP bound to Ded1p and to eIF4A
# eIF4A (S. cerevisiae) [10] = biological target: T1, eIF4A (S. cerevisiae); experiment: global fit of RNA unwinding time courses to a thermodynamic model; K1/2 of a binding step calculated with the model of Figure 4A; step without RNA, ATP bound to Ded1p
# eIF4A (S. cerevisiae) [11] = biological target: T1, eIF4A (S. cerevisiae); experiment: global fit of RNA unwinding time courses to a thermodynamic model; K1/2 of a binding step calculated with the model of Figure 4A; RNA bound to the binder before the step, ATP bound to eIF4A
# eIF4A (S. cerevisiae) [12] = biological target: T1, eIF4A (S. cerevisiae); experiment: global fit of RNA unwinding time courses to a thermodynamic model; K1/2 of a binding step calculated with the model of Figure 4A; RNA bound to the binder before the step, no ATP
# eIF4A (S. cerevisiae) [13] = biological target: T1, eIF4A (S. cerevisiae); experiment: global fit of RNA unwinding time courses to a thermodynamic model; K1/2 of a binding step calculated with the model of Figure 4A (Kintek Global Explorer; 16 bp duplex, 25 nt 3' overhang); step without RNA and without ATP
# eIF4A (S. cerevisiae) [14] = biological target: T1, eIF4A (S. cerevisiae); experiment: global fit of RNA unwinding time courses to a thermodynamic model; K1/2 of a binding step calculated with the model of Figure 4A; RNA bound to the target before the step, ATP bound to Ded1p
# Ded1p-eIF4A-eIF4G = biological target: T2, Ded1p-eIF4A-eIF4G (Saccharomyces cerevisiae, UniProt P06634); experiment: global fit of thermodynamic model to RNA unwinding data; assay type: biochemical; conditions: unwinding reactions, RNA 16 bp with 25 nt 3' overhang; fitted with energy-conservation constraints; RNA-bound complex; some ATP constants given only as limits
# T2 construct: gene DED1; His6-Ded1p, His6-eIF4A, GST-S-tag-eIF4G1-His; eIF4G preparation contains eIF4E; with ATP-dependent RNA helicase eIF4A; Eukaryotic initiation factor 4F subunit p150; Eukaryotic translation initiation factor 4E
# T2 sequence (P06634 2-604, one chain of several): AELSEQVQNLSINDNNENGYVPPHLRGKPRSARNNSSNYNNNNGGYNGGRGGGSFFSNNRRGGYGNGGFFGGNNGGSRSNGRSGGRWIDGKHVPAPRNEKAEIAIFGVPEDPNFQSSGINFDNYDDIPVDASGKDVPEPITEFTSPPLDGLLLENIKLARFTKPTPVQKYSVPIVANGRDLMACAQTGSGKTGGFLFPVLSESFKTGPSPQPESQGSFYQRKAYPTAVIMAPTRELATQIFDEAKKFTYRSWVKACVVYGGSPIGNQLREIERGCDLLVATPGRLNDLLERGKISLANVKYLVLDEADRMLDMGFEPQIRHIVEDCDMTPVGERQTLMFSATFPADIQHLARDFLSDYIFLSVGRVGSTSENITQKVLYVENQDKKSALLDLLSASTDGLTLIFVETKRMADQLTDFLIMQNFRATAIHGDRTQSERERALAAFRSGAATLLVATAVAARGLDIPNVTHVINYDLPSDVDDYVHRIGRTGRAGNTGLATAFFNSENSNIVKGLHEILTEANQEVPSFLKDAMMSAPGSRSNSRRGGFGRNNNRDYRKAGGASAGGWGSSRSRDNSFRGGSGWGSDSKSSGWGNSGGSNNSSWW
# T2 sequence (P39935 whole entry partner, one chain of several): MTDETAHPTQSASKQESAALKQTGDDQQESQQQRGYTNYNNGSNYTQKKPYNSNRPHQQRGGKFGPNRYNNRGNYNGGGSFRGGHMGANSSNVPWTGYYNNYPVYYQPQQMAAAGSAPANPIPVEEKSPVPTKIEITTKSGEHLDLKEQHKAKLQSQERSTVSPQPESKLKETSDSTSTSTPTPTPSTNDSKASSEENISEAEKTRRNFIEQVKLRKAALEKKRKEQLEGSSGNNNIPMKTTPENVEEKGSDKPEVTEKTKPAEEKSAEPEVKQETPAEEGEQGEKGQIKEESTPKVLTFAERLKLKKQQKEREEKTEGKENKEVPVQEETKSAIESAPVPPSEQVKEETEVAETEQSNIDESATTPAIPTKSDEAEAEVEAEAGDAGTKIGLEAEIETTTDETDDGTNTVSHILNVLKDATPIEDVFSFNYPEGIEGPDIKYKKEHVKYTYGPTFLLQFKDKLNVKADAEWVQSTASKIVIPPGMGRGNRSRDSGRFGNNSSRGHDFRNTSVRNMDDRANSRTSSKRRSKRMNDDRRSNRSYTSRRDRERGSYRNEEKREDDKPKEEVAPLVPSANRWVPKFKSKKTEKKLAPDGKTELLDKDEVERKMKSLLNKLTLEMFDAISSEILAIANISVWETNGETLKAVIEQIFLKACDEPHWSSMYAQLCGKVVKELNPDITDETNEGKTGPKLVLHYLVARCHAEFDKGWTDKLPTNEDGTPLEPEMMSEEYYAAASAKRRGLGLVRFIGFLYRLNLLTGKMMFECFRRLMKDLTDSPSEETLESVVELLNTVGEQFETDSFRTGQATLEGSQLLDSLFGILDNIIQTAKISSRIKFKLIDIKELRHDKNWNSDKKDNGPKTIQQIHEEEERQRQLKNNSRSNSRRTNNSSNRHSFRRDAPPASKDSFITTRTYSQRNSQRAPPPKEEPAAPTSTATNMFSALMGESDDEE
# Sequence of Ded1p (P06634 whole entry): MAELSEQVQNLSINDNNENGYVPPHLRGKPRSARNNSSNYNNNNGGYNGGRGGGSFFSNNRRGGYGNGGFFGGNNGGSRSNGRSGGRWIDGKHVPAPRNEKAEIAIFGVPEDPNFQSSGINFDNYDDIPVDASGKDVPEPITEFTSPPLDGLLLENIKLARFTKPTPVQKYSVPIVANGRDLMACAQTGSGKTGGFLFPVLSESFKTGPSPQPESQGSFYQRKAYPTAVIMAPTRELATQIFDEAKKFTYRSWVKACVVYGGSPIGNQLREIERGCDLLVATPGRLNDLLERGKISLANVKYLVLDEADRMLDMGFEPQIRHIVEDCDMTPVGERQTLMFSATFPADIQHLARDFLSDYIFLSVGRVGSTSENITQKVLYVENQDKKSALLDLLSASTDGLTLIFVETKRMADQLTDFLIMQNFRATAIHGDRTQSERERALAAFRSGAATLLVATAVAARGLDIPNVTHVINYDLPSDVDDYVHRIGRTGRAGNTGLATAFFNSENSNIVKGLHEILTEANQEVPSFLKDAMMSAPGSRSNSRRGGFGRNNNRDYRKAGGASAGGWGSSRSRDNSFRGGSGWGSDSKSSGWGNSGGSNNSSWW
# Sequence of Ded1p (wild type, N-terminal His6-tag) (P06634 whole entry): as above
# Sequence of eIF4G-eIF4E complex (Saccharomyces cerevisiae) (P39935 whole entry, chain 1 of 2): as the sequence (P39935 whole entry partner, one chain of several) above
# Sequence of eIF4G-eIF4E complex (Saccharomyces cerevisiae) (P07260 whole entry, chain 2 of 2, further chain): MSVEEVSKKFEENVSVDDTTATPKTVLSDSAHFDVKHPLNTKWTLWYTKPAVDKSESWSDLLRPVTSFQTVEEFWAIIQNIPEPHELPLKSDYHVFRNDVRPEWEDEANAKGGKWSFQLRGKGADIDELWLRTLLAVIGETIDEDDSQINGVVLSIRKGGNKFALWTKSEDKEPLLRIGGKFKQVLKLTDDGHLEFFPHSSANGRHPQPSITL
molecule,measurement,setting,value
eIF4A (from UniProt P10081),pKd,[1],> 7.52
"Ded1p (wild type, N-terminal His6-tag) (from UniProt P06634 1-604) (enzyme; other documents disagree on this pair)",stoichiometry N,[2],3
Ded1p (from UniProt P06634 1-604) (enzyme; other documents disagree on this pair),pKd,eIF4A (S. cerevisiae) [3],6.15
same,pKd,eIF4A (S. cerevisiae) [4],6.10
same,pKd,eIF4A (S. cerevisiae) [5],7.35
same,pKd,eIF4A (S. cerevisiae) [6],6.10
same,pKd,eIF4A (S. cerevisiae) [7],7.35
same,pKd,eIF4A (S. cerevisiae) [8],7.05
same,pKd,eIF4A (S. cerevisiae) [9],6.15
same,pKd,eIF4A (S. cerevisiae) [10],6.10
same,pKd,eIF4A (S. cerevisiae) [11],6.57
same,pKd,eIF4A (S. cerevisiae) [12],6.57
same,pKd,eIF4A (S. cerevisiae) [13],6.10
same,pKd,eIF4A (S. cerevisiae) [14],7.05
Nc1ncnc2c1ncn2[C@@H]1O[C@H](COP(=O)(O)OP(=O)(O)OP(=O)(O)O)[C@@H](O)[C@H]1O [ATP],K1/2,Ded1p-eIF4A-eIF4G,ATP binding to Ded1p-eIF4G-eIF4A-RNA complex
